Measurements reported in US20180140739A1, “HAEMOSTATIC DEVICE” (HAEMOSTATIX LIMITED, priority 2015, published 2018).
Ends that are not written are not given here.

B1: Peptide Dendrimer No. 12 (peptide, from a related filing, part only)
peptide: GPRPG
chain: KKKKK
modifications: also: five-arm dendrimer, all arms GPRPG, C-termini attached to branched core

Tests used:
[1] = target: T1, fibrinogen hole 'a' and hole 'b' (Homo sapiens, UniProt P02675+P02679); conditions: cited from earlier work
T1 sequence (P02679 27-433 limits assumed): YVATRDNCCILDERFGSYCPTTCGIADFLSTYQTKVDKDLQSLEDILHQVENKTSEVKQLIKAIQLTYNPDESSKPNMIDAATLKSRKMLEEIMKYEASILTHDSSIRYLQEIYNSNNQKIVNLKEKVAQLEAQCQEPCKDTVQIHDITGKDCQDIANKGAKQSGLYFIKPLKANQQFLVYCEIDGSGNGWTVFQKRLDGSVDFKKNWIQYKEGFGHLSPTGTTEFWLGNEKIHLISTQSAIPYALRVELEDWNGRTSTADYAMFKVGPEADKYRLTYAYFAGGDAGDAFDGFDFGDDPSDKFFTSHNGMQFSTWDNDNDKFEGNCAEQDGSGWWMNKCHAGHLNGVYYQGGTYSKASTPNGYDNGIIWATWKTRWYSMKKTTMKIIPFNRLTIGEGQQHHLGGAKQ
T1 sequence (P02675 31-491): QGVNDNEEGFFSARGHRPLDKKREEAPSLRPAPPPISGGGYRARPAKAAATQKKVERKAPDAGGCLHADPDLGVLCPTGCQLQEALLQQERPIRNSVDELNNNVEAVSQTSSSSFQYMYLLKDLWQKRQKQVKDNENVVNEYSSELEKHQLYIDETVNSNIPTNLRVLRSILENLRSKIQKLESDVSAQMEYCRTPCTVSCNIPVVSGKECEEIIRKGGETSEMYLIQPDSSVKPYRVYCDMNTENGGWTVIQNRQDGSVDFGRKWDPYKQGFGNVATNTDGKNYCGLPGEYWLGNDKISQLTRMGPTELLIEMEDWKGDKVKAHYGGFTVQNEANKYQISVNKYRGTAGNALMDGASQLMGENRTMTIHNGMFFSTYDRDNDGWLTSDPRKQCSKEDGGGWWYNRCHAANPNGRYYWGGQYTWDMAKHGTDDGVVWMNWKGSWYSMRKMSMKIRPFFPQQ
T1 sequence (P02671 20-629 partner limits assumed): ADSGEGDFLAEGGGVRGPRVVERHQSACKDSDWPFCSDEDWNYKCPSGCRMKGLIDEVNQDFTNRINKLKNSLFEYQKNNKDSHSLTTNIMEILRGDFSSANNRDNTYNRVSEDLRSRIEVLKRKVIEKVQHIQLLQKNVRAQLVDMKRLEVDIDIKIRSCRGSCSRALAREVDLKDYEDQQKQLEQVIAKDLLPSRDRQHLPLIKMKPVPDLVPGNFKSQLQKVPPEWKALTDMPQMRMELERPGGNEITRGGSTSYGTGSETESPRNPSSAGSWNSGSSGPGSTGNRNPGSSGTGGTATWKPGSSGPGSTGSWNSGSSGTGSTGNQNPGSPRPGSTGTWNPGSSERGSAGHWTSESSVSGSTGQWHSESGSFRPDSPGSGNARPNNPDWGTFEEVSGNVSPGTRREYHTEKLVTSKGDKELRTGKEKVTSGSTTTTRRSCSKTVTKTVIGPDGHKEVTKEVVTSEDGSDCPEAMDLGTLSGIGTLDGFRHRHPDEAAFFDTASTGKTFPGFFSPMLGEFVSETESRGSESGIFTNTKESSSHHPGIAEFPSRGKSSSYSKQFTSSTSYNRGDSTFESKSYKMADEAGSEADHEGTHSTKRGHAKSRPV

[2] = target: human fibrinogen (human) (UniProt P02671); assay: cell-based or functional assay

Molecule | binding preference for hole 'a' / hole 'b' of fibrinogen [1] | Clotting activity (seconds), non-irradiated control; extract about 0.25 mg/ml with human fibrinogen 3 mg/ml, 37° C. [2] [s] | Clotting activity (seconds), storage for 2 weeks post irradiation (30 kGy); extract about 0.25 mg/ml with human fibrinogen 3 mg/ml, 37° C. [2] [s] | Clotting activity (seconds), storage for 4 weeks post irradiation (30 kGy); extract about 0.25 mg/ml with human fibrinogen 3 mg/ml, 37° C. [2] [s] | clotting time in human plasma, dendrimer 0.25 mg/ml, 37° C., coagulation analyser [2] [s]
GPRPFPA (listed as Homo sapiens) | binds with high preference for hole ‘a’ in fibrinogen |  |  |  | 
GPRPG (listed as Homo sapiens) | binds to hole ‘a’ and hole ‘b’ of fibrinogen, but with some preference for hole ‘a’ |  |  |  | 
GFIRPY | binds strongly and preferentially to the ‘b’ hole of fibrinogen |  |  |  | 
B1 |  | 1 | 1 | 1 | < 1
